Source: publication PMC12638876 (Nature Communications, 2025)

Assays:
split reporter = target: the molecule itself; test: split reporter
crystal structure = target: the molecule itself; test: crystal structure

B1: CXE15 C14D fused to split YFP (enzyme, Arabidopsis thaliana, UniProt Q9FG13 1-329, looked up)
chain: MGSLGEEPQVAEDDMGLLQLLSNGTVLRSESIDLITQQIPFKNNQTVLFKDSIYHKPNNLHLRLYKPISASNRTALPVVVFFHGGGFCFGSRSWPHFHNFCLTLASSLNALVVSPDYRLAPEHRLPAAFEDAEAVLTWLWDQAVSDGVNHWFEDGTDVDFDRVFVVGDSSGGNIAHQLAVRFGSGSIELTPVRVRGYVLMGPFFGGEERTNSENGPSEALLSLDLLDKFWRLSLPNGATRDHHMANPFGPTSPTLESISLEPMLVIVGGSELLRDRAKEYAYKLKKMGGKRVDYIEFENKEHGFYSNYPSSEAAEQVLRIIGDFMNNLS
For B1, the “fold reduction of BiFC fluorescence against wild-type CXE15” value (split reporter) was greater than 2 fold.

B2: CXE15 E271Q mutant (enzyme, Arabidopsis thaliana, UniProt Q9FG13 1-329, looked up)
chain: MGSLGEEPQVAEDCMGLLQLLSNGTVLRSESIDLITQQIPFKNNQTVLFKDSIYHKPNNLHLRLYKPISASNRTALPVVVFFHGGGFCFGSRSWPHFHNFCLTLASSLNALVVSPDYRLAPEHRLPAAFEDAEAVLTWLWDQAVSDGVNHWFEDGTDVDFDRVFVVGDSSGGNIAHQLAVRFGSGSIELTPVRVRGYVLMGPFFGGEERTNSENGPSEALLSLDLLDKFWRLSLPNGATRDHHMANPFGPTSPTLESISLEPMLVIVGGSQLLRDRAKEYAYKLKKMGGKRVDYIEFENKEHGFYSNYPSSEAAEQVLRIIGDFMNNLS
modifications: disulphide bond between the two Cys14 residues in the crystal
B2: binds (crystal structure).
